Reference: patent publication US9549967B2, “Regulation of sodium channels by PLUNC proteins” (The University of North Carolina at Chapel Hill, priority 2009, dated 2017)

Target: T1, α, β and γ ENaC subunits (Rattus norvegicus, UniProt P37089+P37090+P37091)
T1 construct: expressed in transfected cells; host or cells: Xenopus oocytes (cRNA injection), lysates
T1 sequence (P37089 1-698): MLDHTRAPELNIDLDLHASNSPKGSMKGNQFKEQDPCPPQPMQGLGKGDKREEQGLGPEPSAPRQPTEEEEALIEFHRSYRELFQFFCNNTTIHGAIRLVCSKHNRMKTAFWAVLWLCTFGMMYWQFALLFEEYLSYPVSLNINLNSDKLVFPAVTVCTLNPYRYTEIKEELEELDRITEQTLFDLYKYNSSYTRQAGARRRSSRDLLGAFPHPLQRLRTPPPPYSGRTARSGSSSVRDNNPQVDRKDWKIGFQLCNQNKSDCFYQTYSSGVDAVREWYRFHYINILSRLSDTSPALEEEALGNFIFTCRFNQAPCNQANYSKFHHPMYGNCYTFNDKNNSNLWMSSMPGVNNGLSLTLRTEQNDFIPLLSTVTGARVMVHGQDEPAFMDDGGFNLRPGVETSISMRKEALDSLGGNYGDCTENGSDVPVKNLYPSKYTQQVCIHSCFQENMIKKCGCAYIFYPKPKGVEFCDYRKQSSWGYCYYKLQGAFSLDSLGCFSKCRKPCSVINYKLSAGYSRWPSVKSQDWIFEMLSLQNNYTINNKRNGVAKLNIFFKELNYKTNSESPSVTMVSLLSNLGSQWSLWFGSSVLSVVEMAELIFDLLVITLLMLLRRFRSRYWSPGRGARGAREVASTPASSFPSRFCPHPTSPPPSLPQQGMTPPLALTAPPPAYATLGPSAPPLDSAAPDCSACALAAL
T1 sequence (P37090 1-638): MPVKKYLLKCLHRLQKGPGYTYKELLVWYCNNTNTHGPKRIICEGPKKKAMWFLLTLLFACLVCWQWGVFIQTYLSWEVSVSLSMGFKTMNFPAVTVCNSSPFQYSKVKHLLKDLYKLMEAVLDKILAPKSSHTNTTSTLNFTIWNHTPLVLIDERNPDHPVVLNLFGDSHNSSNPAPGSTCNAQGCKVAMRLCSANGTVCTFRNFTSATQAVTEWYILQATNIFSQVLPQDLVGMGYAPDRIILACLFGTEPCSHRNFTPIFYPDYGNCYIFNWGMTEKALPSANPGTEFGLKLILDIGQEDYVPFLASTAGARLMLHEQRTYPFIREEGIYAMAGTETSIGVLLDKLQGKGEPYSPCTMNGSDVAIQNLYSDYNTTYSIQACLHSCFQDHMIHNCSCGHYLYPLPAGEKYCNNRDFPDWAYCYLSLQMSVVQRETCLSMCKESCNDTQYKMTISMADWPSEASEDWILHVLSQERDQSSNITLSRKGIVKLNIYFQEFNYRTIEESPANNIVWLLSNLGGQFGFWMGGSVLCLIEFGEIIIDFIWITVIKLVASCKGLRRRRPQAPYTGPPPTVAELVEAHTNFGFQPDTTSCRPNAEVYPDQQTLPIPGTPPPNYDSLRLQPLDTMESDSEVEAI
T1 sequence (P37091 1-650): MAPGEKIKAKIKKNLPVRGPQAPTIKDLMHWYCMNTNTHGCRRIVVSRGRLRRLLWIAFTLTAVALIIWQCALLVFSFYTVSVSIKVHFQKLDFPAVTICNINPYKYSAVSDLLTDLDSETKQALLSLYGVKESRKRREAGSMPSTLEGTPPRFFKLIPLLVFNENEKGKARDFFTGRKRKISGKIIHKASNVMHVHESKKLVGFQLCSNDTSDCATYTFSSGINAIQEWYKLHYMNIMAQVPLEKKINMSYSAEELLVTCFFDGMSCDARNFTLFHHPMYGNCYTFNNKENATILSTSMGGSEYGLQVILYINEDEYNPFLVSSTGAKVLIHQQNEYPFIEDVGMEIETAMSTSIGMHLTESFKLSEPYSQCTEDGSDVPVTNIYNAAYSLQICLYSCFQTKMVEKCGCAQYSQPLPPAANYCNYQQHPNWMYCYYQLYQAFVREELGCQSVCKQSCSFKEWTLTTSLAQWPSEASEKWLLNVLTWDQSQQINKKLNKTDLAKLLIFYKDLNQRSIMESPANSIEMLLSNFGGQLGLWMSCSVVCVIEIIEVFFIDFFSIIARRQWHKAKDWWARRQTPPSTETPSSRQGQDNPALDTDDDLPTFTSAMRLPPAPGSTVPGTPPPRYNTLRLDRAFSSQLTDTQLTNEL
Assay: Co-immunoprecipitation of V5-tagged SPLUNC1 with HA-tagged ENaC subunits from Xenopus oocytes
Format: binding
Settings: anti-HA immunoprecipitation, probed for V5-tagged SPLUNC1
Protocol: Co-Immunoprecipitation: Xenopus oocytes were injected with either HA-N-Terminus or V5-C-Terminus (HA-NT/V5-CT) tagged subunits in combination with wild type (WT) untagged rat αβγENaC subunits (0.3 ng cRNA each) with or without V5-tagged SPLUNC1 and CAP2 (1 ng cRNA each). After 24 h, 40 eggs per experimental condition were lysed with buffer containing (in mM): 20 Tris, 50 NaCl, 50 NaF, 10 β-glycerophosphate, 5 Na4P2O7 pyrophosphate, 1 EDTA, pH 7.5 and protease inhibitors (complete, Roche), aprotinin (Sigma). Cell lysates were prepared by passing the eggs through a 27 G1/2 needle twice and by centrifugation at 3,600 rpm for 10 minutes at 4° C. Supernatants were transferred to new tubes and samples were spun at 14,000 rpm for 20 minutes at 4° C. Supernatants were discarded and pellets were solubilized in (mM) 50 Tris, 100 NaCl, 0.1% Triton X-100, 0.1% NP-40, 20 NaF, 10 Na4P2O7, 10 EDTA+protease inhibitor cocktail (Sigma), pH 7.5. Total inputs were taken from whole cell samples representing 4% of total protein. Solubilized proteins were incubated with 50 μl of protein A and 5 μl of anti-HA antibody (Covance) overnight while tumbling at 4° C. Samples were washed three times with (mM) 150 NaCl 50 Tris pH 7.5 buffer. Laemmli buffer was added and samples were loaded on a 15% gradient Tris-glycine gel after incubation for 10 minutes at 96° C. […]

B1: SPLUNC1: human SPLUNC1, 256 amino acid secreted PLUNC protein (SEQ ID NO:1); rSPLUNC1 = V5/6His-tagged protein purified from HEK293 media (protein, listed as Homo sapiens)
chain: MFQTGGLIVFYGLLAQTMAQFGGLPVPLDQTLPLNVNPALPLSPTGLAGSLTNALSNGLLSGGLLGILENLPLLDILKPGGGTSGGLLGGLLGKVTSVIPGLNNIIDIKVTDPQLLELGLVQSPDGHRLYVTIPLGIKLQVNTPLVGASLLRLAVKLDITAEILAVRDKQERIHLVLGDCTHSPGSLQISLLDGLGPLPIQGLLDSLTGILNKVLPELVQGNVCPLVNEVLRGLDITLVHDIVNMLIHGLQFVIKV
modifications: V5/6His tag
notes: rSPLUNC1 = V5/6His-tagged protein purified from HEK293 media
Question: With B1 as the molecule, how does the “binding to ENaC subunits (co-immunoprecipitation)” value read?
Answer: bound to all three ENaC subunits
